Literature values as cited in paper PMC9406010.

Legend:
[1] = molecular target: GPR1 (Homo sapiens) (UniProt P46091)
[2] = molecular target: CMKLR1 (Homo sapiens) (UniProt Q99788)
[3] = molecular target: CCRL2 (Homo sapiens) (UniProt O00421)
Chain of CCRL2 (Homo sapiens) (O00421 whole entry): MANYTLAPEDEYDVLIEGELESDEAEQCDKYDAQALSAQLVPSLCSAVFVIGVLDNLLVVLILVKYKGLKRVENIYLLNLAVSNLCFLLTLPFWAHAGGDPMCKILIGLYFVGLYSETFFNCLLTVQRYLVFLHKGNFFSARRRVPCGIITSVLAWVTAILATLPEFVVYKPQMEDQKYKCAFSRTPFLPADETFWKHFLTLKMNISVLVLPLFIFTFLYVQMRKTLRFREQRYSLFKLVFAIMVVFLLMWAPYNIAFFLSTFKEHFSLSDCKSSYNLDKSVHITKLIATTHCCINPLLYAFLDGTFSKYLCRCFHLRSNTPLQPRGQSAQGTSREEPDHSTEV

Chain of Chemerin (Q99969 21-157): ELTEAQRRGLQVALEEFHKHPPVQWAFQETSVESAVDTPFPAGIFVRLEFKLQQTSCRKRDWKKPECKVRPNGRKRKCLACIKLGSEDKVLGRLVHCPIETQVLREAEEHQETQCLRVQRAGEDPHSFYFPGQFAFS
Chain of CMKLR1 (Homo sapiens) (Q99788 whole entry): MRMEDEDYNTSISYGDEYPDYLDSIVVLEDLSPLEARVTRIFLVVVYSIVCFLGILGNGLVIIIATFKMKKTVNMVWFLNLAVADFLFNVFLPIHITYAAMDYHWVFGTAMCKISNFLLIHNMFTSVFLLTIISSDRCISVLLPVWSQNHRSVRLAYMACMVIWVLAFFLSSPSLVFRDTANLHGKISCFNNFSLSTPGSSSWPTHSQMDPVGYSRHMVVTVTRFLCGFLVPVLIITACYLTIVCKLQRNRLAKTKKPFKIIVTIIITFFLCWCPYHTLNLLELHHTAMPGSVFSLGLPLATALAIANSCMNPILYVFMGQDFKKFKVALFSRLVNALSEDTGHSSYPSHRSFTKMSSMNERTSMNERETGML
Chain of GPR1 (Homo sapiens) (P46091 whole entry): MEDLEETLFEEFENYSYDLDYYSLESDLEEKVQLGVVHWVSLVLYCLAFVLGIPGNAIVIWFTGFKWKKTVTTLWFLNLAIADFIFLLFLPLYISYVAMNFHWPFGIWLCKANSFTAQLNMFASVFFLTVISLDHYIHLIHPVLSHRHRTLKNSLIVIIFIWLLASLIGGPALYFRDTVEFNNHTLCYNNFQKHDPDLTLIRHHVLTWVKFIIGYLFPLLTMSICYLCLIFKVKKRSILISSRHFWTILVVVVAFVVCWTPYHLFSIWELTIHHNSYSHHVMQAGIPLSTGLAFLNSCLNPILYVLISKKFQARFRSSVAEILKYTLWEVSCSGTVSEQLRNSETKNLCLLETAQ

Kd [1]: 0.21 nM | Kd [2]: 0.88 nM | Kd [3]: 2.35 nM
Substance: Chemerin (from UniProt Q99969)
